In the supplement of paper PMC10567573:

B1: ZNF263 (parent)
chain: FGGNPRFLSLHRAHLGEEAHKCLE
B2: WSB1 (parent)
chain: FSHDGLHVASLADDKMVRFWRIDE

Variants of: B1
Assay: protein stability index of a GFP-peptide fusion (GPS, HEK-293T) (PSI 1-6); higher = more stable
Conditions: c terminus: a fixed tail appended
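Also: lentivirally expressed fusions sorted by FACS into six bins by GFP to DsRed ratio, PSI derived from sequencing read proportions per bin multiplied by bin number.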

Protein stability index: each site, then its substitutions
G2: F 2.55, Y 2.32, C 1.61, T 3.64, A 1.59, N 2.22, E 3.12, R 3.66, S 1.74, K 2.87, L 2.25, P 2.13, D 3.68, W 2.24, I 1.64, Q 1.38, M 2.35, H 1.79
P5: D 1.35, E 2.19, A 2.03, H 2.17, L 1.69, K 1.56, F 1.62, I 1.52, G 1.64, C 1.49
G3: K 2.36, V 2.83, M 2.05, T 2.17, A 1.91, W 2.14, Q 1.53, P 2.13, C 2, I 3.04, E 2.16, D 3.36, S 2.25, H 2.51, R 2.48, Y 1.78, F 2.69, L 2.5, N 2.24
F1: C 2.63, Q 3.38, Y 1.47, D 4.17, R 3.69, V 3.87, A 3.45, T 3.48, G 3.98, M 3.81, L 3.18, I 3.51, P 3.7, W 1.99, E 3.61, K 2.95, N 3.94, S 3.69, H 3.19
N4: W 2.37, E 2.26, V 2.44, C 1.62, L 2.32, M 1.03, D 2.13, I 2.24, P 2.61, T 1.66, A 2.87, F 2.15, Q 1.51, K 2.31, H 1.97, Y 1.53, S 1.14, G 1.56, R 2.46

Variants of: B2
Assay: as above
Conditions: c terminus: a fixed tail appended

Protein stability index: each site, then its substitutions
I22: S 1.66, G 3.54, T 1.65, P 2.64, F 1.63, N 2.09, Y 1.69, Q 2.45, M 2.16, K 2.66, W 1.77, E 2.54, H 2.31, D 2.27
D23: N 1.8, R 1.45, L 2.35, G 2.25, M 1.73, Y 1.34, V 1.81, H 1.85, I 3.06, F 2.1, K 2.02, C 1.21, P 3.58, E 1.58, W 2.11, Q 1.9, T 1.33
R21: P 2.35, D 2.19, G 1.47, L 1.59, A 1.39, C 3.2, H 2.42, I 3.26, W 2.12, N 2.15, E 1.8, T 1.17, S 2.12, Y 3.45, Q 1.44, K 2
E24: H 1.16, K 1.84, G 1.23, P 1.86, N 3, I 2.28, A 3.01, V 2.12, L 2.85, C 4.37, D 1.56, W 2.56, R 1.78, Y 1.97, M 2.05, S 1.61, T 1.62, F 2.68
W20: F 2.09, I 2.85, S 2.7, L 1.88, P 2.6, Y 2.26, K 2.69, E 3.18, N 2.66, V 2.77, C 2.42, G 2.79, D 3.51, M 2.67, H 2.67, A 2.48, T 2.85
